Values quoted from earlier work in PMC2663012.

Molecular target: PKR (Homo sapiens) (UniProt P19525)
Experiment: analytical ultracentrifugation

Kd: 450 µM
Substance: PKR (from UniProt P19525)
